Legend:
[1] = biological target: Ubiquitin carboxyl-terminal hydrolase isozyme L1 (UCH-L1) (human) (UniProt P09936); test: SPR
Cofilin-1 (human) = Cofilin-1 (human) (UniProt P23528); test: SPR
Chain of Cofilin-1 (human) (P23528 whole entry): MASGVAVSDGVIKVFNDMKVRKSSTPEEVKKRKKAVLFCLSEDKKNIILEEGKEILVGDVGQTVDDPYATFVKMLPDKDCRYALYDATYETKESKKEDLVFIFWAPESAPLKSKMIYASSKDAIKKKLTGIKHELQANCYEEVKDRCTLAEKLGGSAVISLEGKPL

Chain of Ubiquitin carboxyl-terminal hydrolase isozyme L1 (UCH-L1) (human) (P09936 whole entry): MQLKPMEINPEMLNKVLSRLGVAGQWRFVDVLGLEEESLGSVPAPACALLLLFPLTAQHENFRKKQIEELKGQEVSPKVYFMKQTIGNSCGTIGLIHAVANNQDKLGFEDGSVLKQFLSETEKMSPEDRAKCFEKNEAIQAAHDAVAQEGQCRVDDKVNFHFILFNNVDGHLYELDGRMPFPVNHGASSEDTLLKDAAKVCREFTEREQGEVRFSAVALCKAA

α-synuclein oligomers (αSOs) (from UniProt P37840 1-140) (complex)
Kd [1]: 0.6 µM | Kd (Cofilin-1 (human)): 0.29 µM

Reference: article PMC10016340
